# B1: FOXA2 promoter probe (-42 to -19) (dsDNA)
# DNA 1: GATTGCTGGTCGTTTGTTGTGGCT
# DNA 2: AGCCACAACAAACGACCAGCAATC
# Target: SMAD3 (UniProt P84022 1-425)
# Assay: EMSA; poly(dI-dC) 0.25 mg/mL; two complexes, partially abolished by unlabeled probe (40 and 200 ng); 20% glycerol, 5 mM MgCl2, 2.5 mM EDTA, 25 mM DTT, 200 mM NaCl, 50 mM Tris-HCl pH 7.6, 0.25 mg/mL poly(dI-dC), 20 min at room temperature; 6% native PAGE
# Conditions: protein: commercial; label: 5'-Cy5 on strand 1; blunt
# Sequence of SMAD3 (P84022 whole entry): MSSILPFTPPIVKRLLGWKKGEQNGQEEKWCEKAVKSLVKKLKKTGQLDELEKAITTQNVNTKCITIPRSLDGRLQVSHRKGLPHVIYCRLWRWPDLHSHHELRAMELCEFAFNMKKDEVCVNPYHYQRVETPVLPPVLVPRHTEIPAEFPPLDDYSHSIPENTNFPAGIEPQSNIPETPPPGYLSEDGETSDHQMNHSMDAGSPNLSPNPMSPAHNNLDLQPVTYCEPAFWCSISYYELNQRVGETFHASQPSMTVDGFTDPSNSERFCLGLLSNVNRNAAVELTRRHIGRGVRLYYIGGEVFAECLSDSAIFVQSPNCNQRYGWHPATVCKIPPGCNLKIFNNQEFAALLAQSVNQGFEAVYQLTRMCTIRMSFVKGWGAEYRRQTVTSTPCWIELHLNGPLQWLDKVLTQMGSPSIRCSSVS
binder,measurement,value
B1,binding result,binds

# Source: article PMC3098871, “High Throughput Determination of TGFβ1/SMAD3 Targets in A549 Lung Epithelial Cells”
